# Assay results reported in patent US20140335077A1, “Compositions and Methods for the Treatment of Cancer Using IGF-IR Antagonists and MAPK/ERK Inhibitors” (priority 2013, published 2014).
# B1: CP-751,871: anti-IGF-1R antibody figitumumab (Pfizer), IGF-1R antagonist (antibody, chains of the INN, looked up)
# heavy: EVQLLESGGGLVQPGGSLRLSCTASGFTFSSYAMNWVRQAPGKGLEWVSAISGSGGTTFYADSVKGRFTISRDNSRTTLYLQMNSLRAEDTAVYYCAKDLGWSDSYYYYYGMDVWGQGTTVTVSSASTKGPSVFPLAPCSRSTSESTAALGCLVKDYFPEPVTVSWNSGALTSGVHTFPAVLQSSGLYSLSSVVTVPSSNFGTQTYTCNVDHKPSNTKVDKTVERKCCVECPPCPAPPVAGPSVFLFPPKPKDTLMISRTPEVTCVVVDVSHEDPEVQFNWYVDGVEVHNAKTKPREEQFNSTFRVVSVLTVVHQDWLNGKEYKCKVSNKGLPAPIEKTISKTKGQPREPQVYTLPPSREEMTKNQVSLTCLVKGFYPSDIAVEWESNGQPENNYKTTPPMLDSDGSFFLYSKLTVDKSRWQQGNVFSCSVMHEALHNHYTQKSLSLSPG
# light: DIQMTQFPSSLSASVGDRVTITCRASQGIRNDLGWYQQKPGKAPKRLIYAASRLHRGVPSRFSGSGSGTEFTLTISSLQPEDFATYYCLQHNSYPCSFGQGTKLEIKRTVAAPSVFIFPPSDEQLKSGTASVVCLLNNFYPREAKVQWKVDNALQSGNSQESVTEQDSKDSTYSLSSTLTLSKADYEKHKVYACEVTHQGLSSPVTKSFNRGEC
# Legend:
# Format in all cases: cell-based
# IGF-1R = molecular target: T1, IGF-1R (Homo sapiens, UniProt P08069); test: IGF-1R downregulation in ES cell lines (western blot)
# T1 construct: all the ES cell lines tested expressed IGF-1R; endogenous in cells; host or cells: Ewing's sarcoma cell lines SKES, RDES, CADO, A673, SKNMC
# Method: FIG. 2A-FIG. 2D. […] (A) Cells incubated in serum free medium for 12 h were treated with 0, 0.1 or 1 μg/ml CP for 24 h. Protein lysates were analyzed by WB for IGF-1R and GAPDH as a loading control. […] Protein lysates were analyzed by WB for IGF-1R and GAPDH as a loading control. Signals were quantified by densitometry, normalized to GAPDH and expressed as a percentage of the IGF-1R at 0 h. Data correspond to the mean±SEM from three independent experiments. […] IGF-1R was immunoprecipitated from lysates and analyzed by WB (IB) for ubiquitination (Ub) and IGF-1R as a loading control. Molecular weight markers in KDa are indicated to the left of the panels. (D) β-Arrestin1 (β-arr1) was immunoprecipitated from cell lysates prepared as for (C). Immunoprecipitated proteins were analyzed by WB for IGF-1R. The whole lysates were analyzed by WB for GAPDH as a loading control.
# Appropriate primary antibody was incubated overnight at 4° C.
# Given that β-arrestin1 (β-arr1) is a key protein involved in IGF-1R ubiquitination, we also investigated ligand induced IGF-1R/β-arr1 association.
# A549 = test: PrestoBlue cell viability, anti-IGF-1R antibody with U0126, A549 (lung cancer); details: 48 h
# Method: (§1) Cells were incubated in 96 well tissue culture plates and cell viability was measured by PrestoBlue cell viability assay (Invitrogen, CA, USA) according to manufacturer's instructions. Fluorescence was measured with excitation at 560 nm and emission at 590 nm. Cell number was calculated from standard curves of fluorescence measurements from known numbers of cells. Triplicate cultures were performed on all experiments.
# (§2) The effects of anti-IGF-1R antibodies/MEK inhibitor combination treatment on viability of different types of tumor cells were investigated using PrestoBlue cell viability assay (Invitrogen, CA, USA) according to manufacturer's instructions. (Table 3).
# (§3) Cells were incubated in serum free medium for 12 h followed by pretreatment for 60 min without or with 0.5, 1, 3 or 5 μM of the ERK inhibitor U0126, and then treated without or with 100 ng/ml anti-IGF-1R antibodies (Figitumumab or αIR-3 (Calbiochem, US). Cells were incubated in 96 well tissue culture plates for 48 hours and cell viability was measured by PrestoBlue cell viability assay. Fluorescence was measured with excitation at 560 nm and emission at 590 nm. Cell number was calculated from standard curves of fluorescence measurements from known numbers of cells. Triplicate cultures were performed on all experiments. The inhibition induced by anti-IGF-1R antibodies treated cells was calculated as percentage of untreated cells.
# [1] = system: Ewing's sarcoma (ES) cell lines: SKES, RDES, CADO, A673 and SKNMC; test: Cell viability of Ewing's sarcoma cell lines (PrestoBlue); details: 48 h
# Method: FIG. 1A-FIG. 1C. Effects of Figitumumab (CP-751871 (CP)) treatment on cell viability in ES cell lines. (A) Cell lysates were prepared from the indicated cell lines and analyzed by WB for total IGF-1R expression and GAPDH as a loading control. […] Data correspond to the mean±SEM from three independent experiments. […] (C) Indicated cells were treated without and with 100 ng/ml CP for 48 h in the absence (SFM) or presence of 10% fetal bovine serum (Serum) and cell viability assayed by PrestoBlue reagent. […] Data correspond to the mean±SEM from three independent experiments. Statistical analysis compared with SKBR3: *P<0.05, **P<0.01, **P<0.001.
# FIG. 6A-FIG. 6C. […] Cell lysates were prepared from the same samples and analyzed by WB for β-arrestin1 (βarr1) and GAPDH as a loading control. Signals were quantified by densitometry, normalized to GAPDH and presented as a percentage of the doxycycline untreated cells. […] During the experiment, cell lysates were collected at 10 min after CP stimulation and analyzed by WB for P-ERK and total ERK as a loading control and at 12 h after CP stimulation and analyzed by WB for IGF-1R and GAPDH as a loading control. Signals were quantified by densitometry, normalized to the loading control and presented as a percentage of the CP untreated cells. […]
# DU-145 = test: PrestoBlue cell viability, anti-IGF-1R antibody with U0126, DU-145 (prostate carcinoma); details: DU-145 cells, 48 h
# Method: as §1, §2, §3
# [2] = U0126 0 μM (60 min pretreatment)
# [3] = U0126 0.5 μM (60 min pretreatment)
# [4] = U0126 1 μM (60 min pretreatment)
# [5] = U0126 3 μM (60 min pretreatment)
# [6] = U0126 5 μM (60 min pretreatment)
molecule,measurement,setting,value
B1,IGF-1R downregulation,"IGF-1R; 100 ng/ml or 1 μg/ml, 24 h, serum starved, all ES cell lines",downregulate IGF-1R in a dose dependent manner
same,Rate of receptor degradation,"IGF-1R; A673 cells, time-response",very fast
same,Receptor degradation compared with IGF-1 (time-response),"IGF-1R; SKES, RDES, CADO and SKNMC, molar concentration approximately 10 fold less than IGF-1",more efficient at inducing receptor degradation
same,Percentage inhibition of antibody treated cells (100 ng/ml),A549; [2],40%
same,Percentage inhibition of antibody treated cells (100 ng/ml),A549; [3],56%
same,Percentage inhibition of antibody treated cells (100 ng/ml),A549; [4],77%
same,Percentage inhibition of antibody treated cells (100 ng/ml),A549; [5],88%
same,Percentage inhibition of antibody treated cells (100 ng/ml),A549; [6],98%
same,Cell viability (cell number) of ES cell lines,"[1]; 100 ng/ml, presence or absence of serum, all ES cell lines",decreased cell number
same,"Sensitivity (cell viability) of combined treatment with MEK inhibitor U0126 versus CP-751,871 alone","[1]; ES cell lines, U0126 pre-treatment 60 min, 100 ng/ml CP",increased sensitivity
same,Percentage inhibition of antibody treated cells (100 ng/ml),DU-145; [2],18%
same,Percentage inhibition of antibody treated cells (100 ng/ml),DU-145; [3],22%
same,Percentage inhibition of antibody treated cells (100 ng/ml),DU-145; [4],34%
same,Percentage inhibition of antibody treated cells (100 ng/ml),DU-145; [5],54%
same,Percentage inhibition of antibody treated cells (100 ng/ml),DU-145; [6],77%
